Results as given in the supplement of paper PMC9112550, “Optimization of the antimicrobial peptide Bac7 by deep mutational scanning” (BMC Biology, 2022).

Test system: Escherichia coli TOP10
Assay: shrunken log2 fold change of peptide-encoding DNA abundance (4.5 h post-induction vs induction); higher = less antimicrobial activity (less host growth inhibition)
Conditions: time post-induction: 4.5 h; library: site-saturation at positions 5, 18, 19, 20
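Note: peptides expressed intracellularly from a pBAD plasmid library in pooled LB shake-flask culture, induced with 0.3% L-arabinose, DNA abundance read by NGS, three biological replicates, DESeq2 with apeglm shrinkage.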

Sequence	shrunken log2 fold change
RRIRSRPPRLPRPRPRPFVRPRP	0.0631
RRIRSRPPRLPRPRPRPFWFPRP	-0.113
RRIRSRPPRLPRPRPRPFYQPRP	-0.308
RRIRSRPPRLPRPRPRPFYTPRP	-0.903
RRIRSRPPRLPRPRPRPGAEPRP	0.606
RRIRSRPPRLPRPRPRPGDGPRP	0.78
RRIRSRPPRLPRPRPRPGEGPRP	0.367
RRIRSRPPRLPRPRPRPGEHPRP	0.0053
RRIRSRPPRLPRPRPRPGETPRP	0.488
RRIRSRPPRLPRPRPRPGFRPRP	0.165
RRIRSRPPRLPRPRPRPGGCPRP	0.304
RRIRSRPPRLPRPRPRPGGGPRP	0.908
RRIRSRPPRLPRPRPRPGGHPRP	0.161
RRIRSRPPRLPRPRPRPGGNPRP	0.163
RRIRSRPPRLPRPRPRPGGVPRP	0.326
RRIRSRPPRLPRPRPRPGHGPRP	-0.254
RRIRSRPPRLPRPRPRPGHLPRP	-0.236
RRIRSRPPRLPRPRPRPGHYPRP	-0.645
RRIRSRPPRLPRPRPRPGKMPRP	-0.0839
RRIRSRPPRLPRPRPRPGLPPRP	0.225
RRIRSRPPRLPRPRPRPGPNPRP	-0.0665
RRIRSRPPRLPRPRPRPGRKPRP	0.133
RRIRSRPPRLPRPRPRPGRLPRP	0.00392
RRIRSRPPRLPRPRPRPGTGPRP	0.103
RRIRSRPPRLPRPRPRPGVIPRP	-0.0412

Sequence	shrunken log2 fold change
RRIRSRPPRLPRPRPRPGVWPRP	0.74
RRIRSRPPRLPRPRPRPHCGPRP	-0.0953
RRIRSRPPRLPRPRPRPHCKPRP	-0.397
RRIRSRPPRLPRPRPRPHDAPRP	-0.142
RRIRSRPPRLPRPRPRPHDCPRP	-0.0708
RRIRSRPPRLPRPRPRPHEHPRP	0.113
RRIRSRPPRLPRPRPRPHEKPRP	0.0101
RRIRSRPPRLPRPRPRPHGCPRP	-0.0029
RRIRSRPPRLPRPRPRPHHGPRP	-0.0421
RRIRSRPPRLPRPRPRPHIEPRP	-0.295
RRIRSRPPRLPRPRPRPHLDPRP	-0.156
RRIRSRPPRLPRPRPRPHLPPRP	-0.27
RRIRSRPPRLPRPRPRPHMTPRP	-0.384
RRIRSRPPRLPRPRPRPHNPPRP	-0.531
RRIRSRPPRLPRPRPRPHQWPRP	-0.144
RRIRSRPPRLPRPRPRPHSNPRP	-0.358
RRIRSRPPRLPRPRPRPHVGPRP	-0.0134
RRIRSRPPRLPRPRPRPHWFPRP	-0.0389
RRIRSRPPRLPRPRPRPHYVPRP	-0.488
RRIRSRPPRLPRPRPRPIAVPRP	0.22
RRIRSRPPRLPRPRPRPICGPRP	-0.056
RRIRSRPPRLPRPRPRPICMPRP	0.177
RRIRSRPPRLPRPRPRPICSPRP	0.119
RRIRSRPPRLPRPRPRPIEEPRP	0.0156
RRIRSRPPRLPRPRPRPIEMPRP	-0.0731

Sequence	shrunken log2 fold change
RRIRSRPPRLPRPRPRPIEPPRP	0.0268
RRIRSRPPRLPRPRPRPIETPRP	-0.29
RRIRSRPPRLPRPRPRPIFGPRP	0.0746
RRIRSRPPRLPRPRPRPIFIPRP	-0.329
RRIRSRPPRLPRPRPRPIIKPRP	0.18
RRIRSRPPRLPRPRPRPIIWPRP	-0.174
RRIRSRPPRLPRPRPRPIIYPRP	-0.182
RRIRSRPPRLPRPRPRPIMPPRP	-0.121
RRIRSRPPRLPRPRPRPIMQPRP	-0.216
RRIRSRPPRLPRPRPRPIMRPRP	0.73
RRIRSRPPRLPRPRPRPINAPRP	-0.377
RRIRSRPPRLPRPRPRPINPPRP	-0.447
RRIRSRPPRLPRPRPRPIQVPRP	0.0973
RRIRSRPPRLPRPRPRPISDPRP	0.103
RRIRSRPPRLPRPRPRPIVPPRP	-0.0492
RRIRSRPPRLPRPRPRPIWQPRP	-0.0554
RRIRSRPPRLPRPRPRPIYGPRP	-0.306
RRIRSRPPRLPRPRPRPKAKPRP	0.626
RRIRSRPPRLPRPRPRPKARPRP	0.0932
RRIRSRPPRLPRPRPRPKASPRP	-0.0199
RRIRSRPPRLPRPRPRPKAWPRP	0.148
RRIRSRPPRLPRPRPRPKCGPRP	0.397
RRIRSRPPRLPRPRPRPKEEPRP	0.0302
RRIRSRPPRLPRPRPRPKFAPRP	0.0751
RRIRSRPPRLPRPRPRPKFEPRP	0.12

Sequence	shrunken log2 fold change
RRIRSRPPRLPRPRPRPKFKPRP	-0.121
RRIRSRPPRLPRPRPRPKFTPRP	-0.436
RRIRSRPPRLPRPRPRPKGCPRP	0.134
RRIRSRPPRLPRPRPRPKGIPRP	-0.357
RRIRSRPPRLPRPRPRPKHNPRP	-0.286
RRIRSRPPRLPRPRPRPKHPPRP	-0.194
RRIRSRPPRLPRPRPRPKIGPRP	-0.0115
RRIRSRPPRLPRPRPRPKILPRP	-0.112
RRIRSRPPRLPRPRPRPKIVPRP	-0.265
RRIRSRPPRLPRPRPRPKKDPRP	0.104
RRIRSRPPRLPRPRPRPKKIPRP	0.139
RRIRSRPPRLPRPRPRPKKKPRP	0.195
RRIRSRPPRLPRPRPRPKLNPRP	-0.103
RRIRSRPPRLPRPRPRPKMGPRP	-0.108
RRIRSRPPRLPRPRPRPKNAPRP	0.196
RRIRSRPPRLPRPRPRPKNTPRP	-0.356
RRIRSRPPRLPRPRPRPKPHPRP	0.213
RRIRSRPPRLPRPRPRPKPTPRP	0.174
RRIRSRPPRLPRPRPRPKPYPRP	-0.153
RRIRSRPPRLPRPRPRPKRCPRP	-0.0384
RRIRSRPPRLPRPRPRPKRQPRP	0.000345
RRIRSRPPRLPRPRPRPKRVPRP	0.0219
RRIRSRPPRLPRPRPRPKRYPRP	-0.163
RRIRSRPPRLPRPRPRPKSMPRP	-0.269
RRIRSRPPRLPRPRPRPKTKPRP	0.000308

Sequence	shrunken log2 fold change
RRIRSRPPRLPRPRPRPKVAPRP	0.509
RRIRSRPPRLPRPRPRPKVPPRP	0.0195
RRIRSRPPRLPRPRPRPKYDPRP	-0.0717
RRIRSRPPRLPRPRPRPKYMPRP	-0.677
RRIRSRPPRLPRPRPRPLGQPRP	-0.0571
RRIRSRPPRLPRPRPRPLHLPRP	-0.0832
RRIRSRPPRLPRPRPRPLIEPRP	-0.06
RRIRSRPPRLPRPRPRPLKDPRP	-0.484
RRIRSRPPRLPRPRPRPLKFPRP	-0.0436
RRIRSRPPRLPRPRPRPLKGPRP	0.0623
RRIRSRPPRLPRPRPRPLKMPRP	0.127
RRIRSRPPRLPRPRPRPLKNPRP	-0.347
RRIRSRPPRLPRPRPRPLLRPRP	-0.107
RRIRSRPPRLPRPRPRPLMHPRP	-0.142
RRIRSRPPRLPRPRPRPLNPPRP	-0.0273
RRIRSRPPRLPRPRPRPLNWPRP	-0.0815
RRIRSRPPRLPRPRPRPLPDPRP	0.266
RRIRSRPPRLPRPRPRPLPQPRP	0.461
RRIRSRPPRLPRPRPRPLQAPRP	0.302
RRIRSRPPRLPRPRPRPLQVPRP	-0.157
RRIRSRPPRLPRPRPRPLRDPRP	0.439
RRIRSRPPRLPRPRPRPLSMPRP	-0.115
RRIRSRPPRLPRPRPRPLTHPRP	-0.569
RRIRSRPPRLPRPRPRPLTVPRP	-0.216
RRIRSRPPRLPRPRPRPLYFPRP	-0.682

Sequence	shrunken log2 fold change
RRIRSRPPRLPRPRPRPLYLPRP	-0.212
RRIRSRPPRLPRPRPRPLYYPRP	-0.547
RRIRSRPPRLPRPRPRPMALPRP	0.213
RRIRSRPPRLPRPRPRPMAMPRP	0.0808
RRIRSRPPRLPRPRPRPMDIPRP	-0.00112
RRIRSRPPRLPRPRPRPMDNPRP	-0.0175
RRIRSRPPRLPRPRPRPMDPPRP	0.00928
RRIRSRPPRLPRPRPRPMEHPRP	-0.122
RRIRSRPPRLPRPRPRPMETPRP	0.585
RRIRSRPPRLPRPRPRPMFRPRP	-0.338
RRIRSRPPRLPRPRPRPMGQPRP	0.0126
RRIRSRPPRLPRPRPRPMHQPRP	-0.0538
RRIRSRPPRLPRPRPRPMINPRP	-0.23
RRIRSRPPRLPRPRPRPMITPRP	-0.19
RRIRSRPPRLPRPRPRPMKDPRP	-0.157
RRIRSRPPRLPRPRPRPMKNPRP	-0.145
RRIRSRPPRLPRPRPRPMKVPRP	-0.0404
RRIRSRPPRLPRPRPRPMLDPRP	-0.291
RRIRSRPPRLPRPRPRPMLMPRP	0.00173
RRIRSRPPRLPRPRPRPMLSPRP	0.149
RRIRSRPPRLPRPRPRPMNFPRP	-0.0407
RRIRSRPPRLPRPRPRPMNNPRP	-0.479
RRIRSRPPRLPRPRPRPMPGPRP	-0.102
RRIRSRPPRLPRPRPRPMPIPRP	-0.109
RRIRSRPPRLPRPRPRPMQIPRP	0.141
